*1 amine or outer side, *2 acyl side, *3 side chain or, on linkers, in order; H or OH if unused. Where no end group is shown, it is not given here. Side-chain parts run from the residue outwards. [ ]: non-standard residue; d: D form. The star is where a group is joined. γGlu = O=C(O)[C@H](CCC(=O)[*:2])N[*:1]; Palmitoyl = CCCCCCCCCCCCCCCC(=O)*; Aib = CC(C)(N)C(=O)O
B1: SEQ ID NO: (67) (peptide)
peptide: H[dS]QGTFTSDLSKQMDSRRAQDFIEWLKNAGPSSGAPPPSK([γGlu-Palmitoyl])-NH2
B2: SEQ ID NO: (71) (peptide)
peptide: H[dS]QGTFTSDLSKQMDSRRAQDFIEWLKNTGPSSGAPPPSK([γGlu-Palmitoyl])-NH2
modifications: N-terminus assumed
SMILES: CCCCCCCCCCCCCCCC(=O)N[C@@H](CCC(=O)NCCCC[C@H](NC(=O)[C@H](CO)NC(=O)[C@@H]1CCCN1C(=O)[C@@H]1CCCN1C(=O)[C@@H]1CCCN1C(=O)[C@H](C)NC(=O)CNC(=O)[C@H](CO)NC(=O)[C@H](CO)NC(=O)[C@@H]1CCCN1C(=O)CNC(=O)[C@@H](NC(=O)[C@H](CC(N)=O)NC(=O)[C@H](CCCCN)NC(=O)[C@H](CC(C)C)NC(=O)[C@H](Cc1c[nH]c2ccccc12)NC(=O)[C@H](CCC(=O)O)NC(=O)[C@@H](NC(=O)[C@H](Cc1ccccc1)NC(=O)[C@H](CC(=O)O)NC(=O)[C@H](CCC(N)=O)NC(=O)[C@H](C)NC(=O)[C@H](CCCNC(=N)N)NC(=O)[C@H](CCCNC(=N)N)NC(=O)[C@H](CO)NC(=O)[C@H](CC(=O)O)NC(=O)[C@H](CCSC)NC(=O)[C@H](CCC(N)=O)NC(=O)[C@H](CCCCN)NC(=O)[C@H](CO)NC(=O)[C@H](CC(C)C)NC(=O)[C@H](CC(=O)O)NC(=O)[C@H](CO)NC(=O)[C@@H](NC(=O)[C@H](Cc1ccccc1)NC(=O)[C@@H](NC(=O)CNC(=O)[C@H](CCC(N)=O)NC(=O)[C@@H](CO)NC(=O)[C@@H](N)Cc1c[nH]cn1)[C@@H](C)O)[C@@H](C)O)[C@@H](C)CC)[C@@H](C)O)C(N)=O)C(=O)O
B3: SEQ ID NO: (62) (peptide)
peptide: H[Aib]QGTFTSDLSKQMESRRAQDFIEWLKNGGPSSGAPPPSK([γGlu-Palmitoyl])-NH2
modifications: N-terminus assumed
SMILES: CCCCCCCCCCCCCCCC(=O)N[C@@H](CCC(=O)NCCCC[C@H](NC(=O)[C@H](CO)NC(=O)[C@@H]1CCCN1C(=O)[C@@H]1CCCN1C(=O)[C@@H]1CCCN1C(=O)[C@H](C)NC(=O)CNC(=O)[C@H](CO)NC(=O)[C@H](CO)NC(=O)[C@@H]1CCCN1C(=O)CNC(=O)CNC(=O)[C@H](CC(N)=O)NC(=O)[C@H](CCCCN)NC(=O)[C@H](CC(C)C)NC(=O)[C@H](Cc1c[nH]c2ccccc12)NC(=O)[C@H](CCC(=O)O)NC(=O)[C@@H](NC(=O)[C@H](Cc1ccccc1)NC(=O)[C@H](CC(=O)O)NC(=O)[C@H](CCC(N)=O)NC(=O)[C@H](C)NC(=O)[C@H](CCCNC(=N)N)NC(=O)[C@H](CCCNC(=N)N)NC(=O)[C@H](CO)NC(=O)[C@H](CCC(=O)O)NC(=O)[C@H](CCSC)NC(=O)[C@H](CCC(N)=O)NC(=O)[C@H](CCCCN)NC(=O)[C@H](CO)NC(=O)[C@H](CC(C)C)NC(=O)[C@H](CC(=O)O)NC(=O)[C@H](CO)NC(=O)[C@@H](NC(=O)[C@H](Cc1ccccc1)NC(=O)[C@@H](NC(=O)CNC(=O)[C@H](CCC(N)=O)NC(=O)C(C)(C)NC(=O)[C@@H](N)Cc1c[nH]cn1)[C@@H](C)O)[C@@H](C)O)[C@@H](C)CC)C(N)=O)C(=O)O
B4: SEQ ID NO: (61) (peptide)
peptide: H[dS]QGTFTSDLSKQMESRRAQDFIEWLKNGGPSSGAPPPSK([γGlu-Palmitoyl])-NH2
modifications: N-terminus assumed
SMILES: CCCCCCCCCCCCCCCC(=O)N[C@@H](CCC(=O)NCCCC[C@H](NC(=O)[C@H](CO)NC(=O)[C@@H]1CCCN1C(=O)[C@@H]1CCCN1C(=O)[C@@H]1CCCN1C(=O)[C@H](C)NC(=O)CNC(=O)[C@H](CO)NC(=O)[C@H](CO)NC(=O)[C@@H]1CCCN1C(=O)CNC(=O)CNC(=O)[C@H](CC(N)=O)NC(=O)[C@H](CCCCN)NC(=O)[C@H](CC(C)C)NC(=O)[C@H](Cc1c[nH]c2ccccc12)NC(=O)[C@H](CCC(=O)O)NC(=O)[C@@H](NC(=O)[C@H](Cc1ccccc1)NC(=O)[C@H](CC(=O)O)NC(=O)[C@H](CCC(N)=O)NC(=O)[C@H](C)NC(=O)[C@H](CCCNC(=N)N)NC(=O)[C@H](CCCNC(=N)N)NC(=O)[C@H](CO)NC(=O)[C@H](CCC(=O)O)NC(=O)[C@H](CCSC)NC(=O)[C@H](CCC(N)=O)NC(=O)[C@H](CCCCN)NC(=O)[C@H](CO)NC(=O)[C@H](CC(C)C)NC(=O)[C@H](CC(=O)O)NC(=O)[C@H](CO)NC(=O)[C@@H](NC(=O)[C@H](Cc1ccccc1)NC(=O)[C@@H](NC(=O)CNC(=O)[C@H](CCC(N)=O)NC(=O)[C@@H](CO)NC(=O)[C@@H](N)Cc1c[nH]cn1)[C@@H](C)O)[C@@H](C)O)[C@@H](C)CC)C(N)=O)C(=O)O
B5: SEQ ID NO: (59) (peptide)
peptide: H[Aib]QGTFTSDLSKQMDSRRAQDFIEWLKNGGPSSGAPPPSK([γGlu-Palmitoyl])-NH2
modifications: N-terminus assumed
SMILES: CCCCCCCCCCCCCCCC(=O)N[C@@H](CCC(=O)NCCCC[C@H](NC(=O)[C@H](CO)NC(=O)[C@@H]1CCCN1C(=O)[C@@H]1CCCN1C(=O)[C@@H]1CCCN1C(=O)[C@H](C)NC(=O)CNC(=O)[C@H](CO)NC(=O)[C@H](CO)NC(=O)[C@@H]1CCCN1C(=O)CNC(=O)CNC(=O)[C@H](CC(N)=O)NC(=O)[C@H](CCCCN)NC(=O)[C@H](CC(C)C)NC(=O)[C@H](Cc1c[nH]c2ccccc12)NC(=O)[C@H](CCC(=O)O)NC(=O)[C@@H](NC(=O)[C@H](Cc1ccccc1)NC(=O)[C@H](CC(=O)O)NC(=O)[C@H](CCC(N)=O)NC(=O)[C@H](C)NC(=O)[C@H](CCCNC(=N)N)NC(=O)[C@H](CCCNC(=N)N)NC(=O)[C@H](CO)NC(=O)[C@H](CC(=O)O)NC(=O)[C@H](CCSC)NC(=O)[C@H](CCC(N)=O)NC(=O)[C@H](CCCCN)NC(=O)[C@H](CO)NC(=O)[C@H](CC(C)C)NC(=O)[C@H](CC(=O)O)NC(=O)[C@H](CO)NC(=O)[C@@H](NC(=O)[C@H](Cc1ccccc1)NC(=O)[C@@H](NC(=O)CNC(=O)[C@H](CCC(N)=O)NC(=O)C(C)(C)NC(=O)[C@@H](N)Cc1c[nH]cn1)[C@@H](C)O)[C@@H](C)O)[C@@H](C)CC)C(N)=O)C(=O)O
B6: SEQ ID NO: (65) (peptide)
peptide: H[dS]QGTFTSDLSKQMDSRRAQDFIEWLKSGGPSSGAPPPSK([γGlu-Palmitoyl])-NH2
modifications: N-terminus assumed
SMILES: CCCCCCCCCCCCCCCC(=O)N[C@@H](CCC(=O)NCCCC[C@H](NC(=O)[C@H](CO)NC(=O)[C@@H]1CCCN1C(=O)[C@@H]1CCCN1C(=O)[C@@H]1CCCN1C(=O)[C@H](C)NC(=O)CNC(=O)[C@H](CO)NC(=O)[C@H](CO)NC(=O)[C@@H]1CCCN1C(=O)CNC(=O)CNC(=O)[C@H](CO)NC(=O)[C@H](CCCCN)NC(=O)[C@H](CC(C)C)NC(=O)[C@H](Cc1c[nH]c2ccccc12)NC(=O)[C@H](CCC(=O)O)NC(=O)[C@@H](NC(=O)[C@H](Cc1ccccc1)NC(=O)[C@H](CC(=O)O)NC(=O)[C@H](CCC(N)=O)NC(=O)[C@H](C)NC(=O)[C@H](CCCNC(=N)N)NC(=O)[C@H](CCCNC(=N)N)NC(=O)[C@H](CO)NC(=O)[C@H](CC(=O)O)NC(=O)[C@H](CCSC)NC(=O)[C@H](CCC(N)=O)NC(=O)[C@H](CCCCN)NC(=O)[C@H](CO)NC(=O)[C@H](CC(C)C)NC(=O)[C@H](CC(=O)O)NC(=O)[C@H](CO)NC(=O)[C@@H](NC(=O)[C@H](Cc1ccccc1)NC(=O)[C@@H](NC(=O)CNC(=O)[C@H](CCC(N)=O)NC(=O)[C@@H](CO)NC(=O)[C@@H](N)Cc1c[nH]cn1)[C@@H](C)O)[C@@H](C)O)[C@@H](C)CC)C(N)=O)C(=O)O
B7: SEQ ID NO: (64) (peptide)
peptide: H[dS]QGTFTSDLSKQMESRRAQDFIEWLKNAGPSSGAPPPSK([γGlu-Palmitoyl])-NH2
modifications: N-terminus assumed
SMILES: CCCCCCCCCCCCCCCC(=O)N[C@@H](CCC(=O)NCCCC[C@H](NC(=O)[C@H](CO)NC(=O)[C@@H]1CCCN1C(=O)[C@@H]1CCCN1C(=O)[C@@H]1CCCN1C(=O)[C@H](C)NC(=O)CNC(=O)[C@H](CO)NC(=O)[C@H](CO)NC(=O)[C@@H]1CCCN1C(=O)CNC(=O)[C@H](C)NC(=O)[C@H](CC(N)=O)NC(=O)[C@H](CCCCN)NC(=O)[C@H](CC(C)C)NC(=O)[C@H](Cc1c[nH]c2ccccc12)NC(=O)[C@H](CCC(=O)O)NC(=O)[C@@H](NC(=O)[C@H](Cc1ccccc1)NC(=O)[C@H](CC(=O)O)NC(=O)[C@H](CCC(N)=O)NC(=O)[C@H](C)NC(=O)[C@H](CCCNC(=N)N)NC(=O)[C@H](CCCNC(=N)N)NC(=O)[C@H](CO)NC(=O)[C@H](CCC(=O)O)NC(=O)[C@H](CCSC)NC(=O)[C@H](CCC(N)=O)NC(=O)[C@H](CCCCN)NC(=O)[C@H](CO)NC(=O)[C@H](CC(C)C)NC(=O)[C@H](CC(=O)O)NC(=O)[C@H](CO)NC(=O)[C@@H](NC(=O)[C@H](Cc1ccccc1)NC(=O)[C@@H](NC(=O)CNC(=O)[C@H](CCC(N)=O)NC(=O)[C@@H](CO)NC(=O)[C@@H](N)Cc1c[nH]cn1)[C@@H](C)O)[C@@H](C)O)[C@@H](C)CC)C(N)=O)C(=O)O
B8: SEQ ID NO: (6) (peptide)
peptide: HSQGTFTSDLSKQMDSRRAQDFIEWLKNGGPSSGAPPPK([γGlu-Palmitoyl])-NH2
B9: SEQ ID NO: (4) (peptide)
peptide: HGEGTFTSDLSKQMDSRRAQDFIEWLKNGGPSSGAPPPS-NH2
B10: SEQ ID NO: (68) (peptide)
peptide: H[dS]QGTFTSDLSKQMDSRRAQDFIEWLKN[dA]GPSSGAPPPSK([γGlu-Palmitoyl])-NH2

What was measured:
human GLP-1 receptor = human GLP-1 receptor (human, UniProt P43220 24-463); assay: cell-based or functional assay
human glucagon receptor = human glucagon receptor (human, UniProt P47871 26-477); assay: cell-based or functional assay
human glucagon receptor, sequence (P47871 26-477): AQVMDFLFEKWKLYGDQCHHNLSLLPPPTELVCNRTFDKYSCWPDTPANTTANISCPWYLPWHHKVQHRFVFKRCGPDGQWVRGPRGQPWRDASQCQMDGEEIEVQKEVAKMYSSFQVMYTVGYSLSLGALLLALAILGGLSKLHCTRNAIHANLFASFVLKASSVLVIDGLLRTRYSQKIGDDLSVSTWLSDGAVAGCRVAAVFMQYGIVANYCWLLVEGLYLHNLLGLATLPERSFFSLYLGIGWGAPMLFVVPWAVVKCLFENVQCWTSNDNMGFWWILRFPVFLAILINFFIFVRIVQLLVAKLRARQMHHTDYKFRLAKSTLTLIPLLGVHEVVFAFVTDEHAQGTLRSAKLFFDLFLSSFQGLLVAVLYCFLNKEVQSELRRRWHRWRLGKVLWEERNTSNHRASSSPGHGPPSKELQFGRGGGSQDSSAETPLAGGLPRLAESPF

Row | Binder | EC50 hGLP-1R (cAMP formation) (human GLP-1 receptor) | EC50 hGlucagonR (cAMP formation) (human glucagon receptor)
1 | B1 | 0.0215 nM | 
2 | B2 | 0.0056 nM | 
3 | B3 | 0.0063 nM | 0.13 nM
4 | B4 | 0.0042 nM | 0.0304 nM
5 | B5 | 0.0029 nM | 0.0409 nM
6 | B6 | 0.015 nM | 0.0057 nM
7 | B7 | 0.0219 nM | 0.067 nM
8 | B8 | 0.0031 nM | 
9 | B9 | 0.0174 nM | 565 nM
10 | B10 | 0.0123 nM | 
